These results are taken from patent US20170306033A1 (Amgen, published 2017).

One test concerns the target human CGRP receptor (human, UniProt Q16602 23-461; O60894 27-148). As to the kind of experiment: cell-based or functional assay.
For the next test, the target named is T1, human PAC1 receptor (human, UniProt P41586 21-468).
T1 sequence: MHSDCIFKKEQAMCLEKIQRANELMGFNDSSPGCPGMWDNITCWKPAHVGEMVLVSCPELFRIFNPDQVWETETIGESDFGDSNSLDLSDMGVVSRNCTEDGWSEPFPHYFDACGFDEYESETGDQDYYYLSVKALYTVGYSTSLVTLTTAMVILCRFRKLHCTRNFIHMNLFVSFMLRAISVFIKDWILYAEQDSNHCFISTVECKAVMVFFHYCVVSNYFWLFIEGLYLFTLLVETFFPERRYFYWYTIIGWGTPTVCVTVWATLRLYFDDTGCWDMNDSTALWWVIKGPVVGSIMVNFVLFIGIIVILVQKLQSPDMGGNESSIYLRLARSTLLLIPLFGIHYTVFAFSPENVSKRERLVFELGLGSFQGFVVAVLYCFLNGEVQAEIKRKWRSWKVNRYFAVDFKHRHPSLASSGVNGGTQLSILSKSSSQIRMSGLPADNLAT
The test can be described thus: cell-based or functional assay.

human CGRP receptor, sequence (Q16602 23-461 limits assumed, chain 1 of 2): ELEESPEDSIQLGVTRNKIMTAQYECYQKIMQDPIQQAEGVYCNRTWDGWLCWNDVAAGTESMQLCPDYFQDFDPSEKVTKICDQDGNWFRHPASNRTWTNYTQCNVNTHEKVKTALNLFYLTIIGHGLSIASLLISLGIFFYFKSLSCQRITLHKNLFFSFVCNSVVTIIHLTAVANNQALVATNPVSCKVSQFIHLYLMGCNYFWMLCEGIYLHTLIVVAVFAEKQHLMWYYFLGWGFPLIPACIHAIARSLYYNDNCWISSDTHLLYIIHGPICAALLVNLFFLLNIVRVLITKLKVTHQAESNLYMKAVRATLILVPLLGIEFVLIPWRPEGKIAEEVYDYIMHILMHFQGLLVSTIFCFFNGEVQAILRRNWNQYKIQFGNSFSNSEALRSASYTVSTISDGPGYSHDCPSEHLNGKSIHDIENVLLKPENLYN
human CGRP receptor, sequence (O60894 27-148 limits assumed, chain 2 of 2): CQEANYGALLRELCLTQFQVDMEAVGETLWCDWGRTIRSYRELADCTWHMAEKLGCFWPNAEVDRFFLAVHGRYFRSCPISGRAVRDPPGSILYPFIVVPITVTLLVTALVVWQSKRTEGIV

B1: iPS:327718 (bispecific antibody, human IgG1, kappa, lambda, N297G)
light 1: not shown
heavy 1: not shown
light 2: QSVLTQPPSVSAAPGQKVTISCSGSSSNIGNNYVSWYQQLPGTAPKLLIYDNNKRPSGIPDRFSGSKSGTSATLAITGLQTGDEADYYCGTWDSRLSAVVFGGGTKLTVLGQPKANPTVTLFPPSSEELQANKATLVCLISDFYPGAVTVAWKADGSPVKAGVETTKPSKQSNNKYAAKSYLSLTPEQWKSHRSYSCQVTHEGSTVEKTVAPTECS
heavy 2: QVQLVESGGGVVQPGRSLRLSCAASGFTFSSFGMHWVRQAPGKGLEWVAVISFDGSIKYSVDSVKGRFTISRDNSKNTLFLQMNSLRAEDTAVYYCARDRLNYYDSSGYYHYKYYGMAVWGQGTTVTVSSASTKGPSVFPLAPSSKSTSGGTAALGCLVKDYFPEPVTVSWNSGALTSGVHTFPAVLQSSGLYSLESVVTVPSSSLGTQTYICNVNHKPSNTKVDKKVEPKSCDKTHTCPPCPAPELLGGPSVFLFPPKPKDTLMISRTPEVTCVVVDVSHEDPEVKFNWYVDGVEVHNAKTKPCEEQYGSTYRCVSVLTVLHQDWLNGKEYKCKVSNKALPAPIEKTISKAKGQPREPQVYTLPPSRKEMTKNQVSLTCLVKGFYPSDIAVEWESNGQPENNYKTTPPVLKSDGSFFLYSKLTVDKSRWQQGNVFSCSVMHEALHNHYTQKSLSLSPGK
As to B1, the “% inhibition of human CGRPR” value with human CGRP receptor was 78%. The “% inhibition of human PAC1” value in the test with human PAC1 receptor was found to be 70%.

B2: iPS:327719 (bispecific antibody, human IgG1, kappa, lambda, N297G)
light 1: DIQLTQSPSFLSASVGDRVTITCRASQSIGRSLHWYQQKPGKAPKLLIKYASQSLSGVPSRFSGSGSGTEFTLTISSLQPEDFATYYCHQSSRLPFTFGPGTKVDIKRTVAAPSVFIFPPSDEQLKSGTASVVCLLNNFYPREAKVQWKVDNALQSGNSQESVTEQDSKDSTYSLESTLTLSKADYEKHKVYACEVTHQGLSSPVTKSFNRGEC
heavy 1: not shown
light 2: QSVLTQPPSVSAAPGQKVTISCSGSSSNIGNNYVSWYQQLPGTAPKLLIYDNNKRPSGIPDRFSGSKSGTSATLAITGLQTGDEADYYCGTWDSRLSAVVFGGGTKLTVLGQPKANPTVTLFPPSSEELQANKATLVCLISDFYPGAVTVAWKADGSPVKAGVETTKPSKQSNNKYAAKSYLSLTPEQWKSHRSYSCQVTHEGSTVEKTVAPTECS
heavy 2: QVQLVESGGGVVQPGRSLRLSCAASGFTFSSFGMHWVRQAPGKGLEWVAVISFDGSIKYSVDSVKGRFTISRDNSKNTLFLQMNSLRAEDTAVYYCARDRLNYYDSSGYYHYKYYGMAVWGQGTTVTVSSASTKGPSVFPLAPSSKSTSGGTAALGCLVKDYFPEPVTVSWNSGALTSGVHTFPAVLQSSGLYSLESVVTVPSSSLGTQTYICNVNHKPSNTKVDKKVEPKSCDKTHTCPPCPAPELLGGPSVFLFPPKPKDTLMISRTPEVTCVVVDVSHEDPEVKFNWYVDGVEVHNAKTKPCEEQYGSTYRCVSVLTVLHQDWLNGKEYKCKVSNKALPAPIEKTISKAKGQPREPQVYTLPPSRKEMTKNQVSLTCLVKGFYPSDIAVEWESNGQPENNYKTTPPVLKSDGSFFLYSKLTVDKSRWQQGNVFSCSVMHEALHNHYTQKSLSLSPGK
With B2, the “% inhibition of human CGRPR” value in the test with human CGRP receptor came out at 85%. The “% inhibition of human PAC1” value with human PAC1 receptor worked out at 59%.

B3: iPS:327721 (bispecific antibody, human IgG1, kappa, lambda, N297G)
light 1: EIVLTQSPATLSLSPGERATLSCRASQSVGRSLHWYQQKPGQAPRLLIKYASQSLSGIPARFSGSGSGTDFTLTISSLEPEDFAVYYCHQSSRLPFTFGPGTKVDIKRTVAAPSVFIFPPSDEQLKSGTASVVCLLNNFYPREAKVQWKVDNALQSGNSQESVTEQDSKDSTYSLESTLTLSKADYEKHKVYACEVTHQGLSSPVTKSFNRGEC
heavy 1: not shown
light 2: QSVLTQPPSVSAAPGQKVTISCSGSSSNIGNNYVSWYQQLPGTAPKLLIYDNNKRPSGIPDRFSGSKSGTSATLAITGLQTGDEADYYCGTWDSRLSAVVFGGGTKLTVLGQPKANPTVTLFPPSSEELQANKATLVCLISDFYPGAVTVAWKADGSPVKAGVETTKPSKQSNNKYAAKSYLSLTPEQWKSHRSYSCQVTHEGSTVEKTVAPTECS
heavy 2: QVQLVESGGGVVQPGRSLRLSCAASGFTFSSFGMHWVRQAPGKGLEWVAVISFDGSIKYSVDSVKGRFTISRDNSKNTLFLQMNSLRAEDTAVYYCARDRLNYYDSSGYYHYKYYGMAVWGQGTTVTVSSASTKGPSVFPLAPSSKSTSGGTAALGCLVKDYFPEPVTVSWNSGALTSGVHTFPAVLQSSGLYSLESVVTVPSSSLGTQTYICNVNHKPSNTKVDKKVEPKSCDKTHTCPPCPAPELLGGPSVFLFPPKPKDTLMISRTPEVTCVVVDVSHEDPEVKFNWYVDGVEVHNAKTKPCEEQYGSTYRCVSVLTVLHQDWLNGKEYKCKVSNKALPAPIEKTISKAKGQPREPQVYTLPPSRKEMTKNQVSLTCLVKGFYPSDIAVEWESNGQPENNYKTTPPVLKSDGSFFLYSKLTVDKSRWQQGNVFSCSVMHEALHNHYTQKSLSLSPGK
With B3, in the test with human CGRP receptor, the “% inhibition of human CGRPR” value was 81%. In addition, the “% inhibition of human PAC1” value with human PAC1 receptor came out at 99%.

B4: iPS:327730 (bispecific antibody, human IgG1, kappa, lambda, N297G)
light 1: EIVLTQSPATLSLSPGERATLSCRASQSVGRSLHWYQQKPGQAPRLLIKYASQSLSGIPARFSGSGSGTDFTLTISSLEPEDFAVYYCHQSSRLPFTFGPGTKVDIKRTVAAPSVFIFPPSDEQLKSGTASVVCLLNNFYPREAKVQWKVDNALQSGNSQESVTEQDSKDSTYSLESTLTLSKADYEKHKVYACEVTHQGLSSPVTKSFNRGEC
heavy 1: not shown
light 2: QSVLTQPPSVSAAPGQKVTISCSGSSSNIGNNYVSWYQQLPGTAPKLLIYDNNKRPSGIPDRFSGSKSGTSATLAITGLQTGDEADYYCGTWDSRLSAVVFGGGTKLTVLGQPKANPTVTLFPPSSEELQANKATLVCLISDFYPGAVTVAWKADGSPVKAGVETTKPSKQSNNKYAAKSYLSLTPEQWKSHRSYSCQVTHEGSTVEKTVAPTECS
heavy 2: QVQLVESGGGVVQPGRSLRLSCAASGFTFSSFGMHWVRQAPGKGLEWVAVISFDGSIKYSVDSVKGRFTISRDNSKNTLFLQMNSLRAEDTAVYYCARDRLNYYDSSGYYHYKYYGMAVWGQGTTVTVSSASTKGPSVFPLAPSSKSTSGGTAALGCLVKDYFPEPVTVSWNSGALTSGVHTFPAVLQSSGLYSLESVVTVPSSSLGTQTYICNVNHKPSNTKVDKKVEPKSCDKTHTCPPCPAPELLGGPSVFLFPPKPKDTLMISRTPEVTCVVVDVSHEDPEVKFNWYVDGVEVHNAKTKPCEEQYGSTYRCVSVLTVLHQDWLNGKEYKCKVSNKALPAPIEKTISKAKGQPREPQVYTLPPSRKKMTKNQVSLTCLVKGFYPSDIAVEWESNGQPENNYKTTPPVLKSDGSFFLYSKLTVDKSRWQQGNVFSCSVMHEALHNHYTQKSLSLSPGK
Consider B4, for which the “% inhibition of human CGRPR” value in the test with human CGRP receptor was found to be 87%. In the test with human PAC1 receptor, the “% inhibition of human PAC1” value was 101%.

B5: iPS:327731 (bispecific antibody, human IgG1, kappa, lambda, N297G)
light 1: not shown
heavy 1: not shown
light 2: QSVLTQPPSVSAAPGQKVTISCSGSSSNIGNNYVSWYQQLPGTAPKLLIYDNNKRPSGIPDRFSGSKSGTSATLGITGLQTGDEADYYCGTWDSRLSAVVFGGGTKLTVLGQPKANPTVTLFPPSSEELQANKATLVCLISDFYPGAVTVAWKADGSPVKAGVETTKPSKQSNNKYAAKSYLSLTPEQWKSHRSYSCQVTHEGSTVEKTVAPTECS
heavy 2: QVQLVESGGGVVQPGRSLRLSCAASGFTFSSFGMHWVRQAPGKGLEWVAVISFDGSIKYSVDSVKGRFTISRDNSKNTLFLQMNSLRAEDTAVYYCARDRLNYYESSGYYHYKYYGMAVWGQGTTVTVSSASTKGPSVFPLAPSSKSTSGGTAALGCLVKDYFPEPVTVSWNSGALTSGVHTFPAVLQSSGLYSLESVVTVPSSSLGTQTYICNVNHKPSNTKVDKKVEPKSCDKTHTCPPCPAPELLGGPSVFLFPPKPKDTLMISRTPEVTCVVVDVSHEDPEVKFNWYVDGVEVHNAKTKPCEEQYGSTYRCVSVLTVLHQDWLNGKEYKCKVSNKALPAPIEKTISKAKGQPREPQVYTLPPSRKEMTKNQVSLTCLVKGFYPSDIAVEWESNGQPENNYKTTPPVLKSDGSFFLYSKLTVDKSRWQQGNVFSCSVMHEALHNHYTQKSLSLSPGK
Consider B5, for which the “% inhibition of human CGRPR” value in the test with human CGRP receptor stood at 74%. Besides, the “% inhibition of human PAC1” value in the test with human PAC1 receptor worked out at 74%.

B6: iPS:327870 (bispecific antibody, human IgG2, kappa, lambda)
light 1: not shown
heavy 1: QVQLQQSGPGLVKPSQTLSLTCAISGDSVSSNSATWNWIRQSPSRGLEWLGRTYYRSKWSNHYAVSVKSRITINPDTSKSQFSLQLNSVTPEDTAVYYCARGTWKQLWFLDHWGQGTLVTVSSASTKGPSVFPLAPCSRSTSESTAALGCLVKDYFPEPVTVSWNSGALTSGVHTFPAVLQSSGLYSLKSVVTVPSSNFGTQTYTCNVDHKPSNTKVDKTVERKCCVECPPCPAPPVAGPSVFLFPPKPKDTLMISRTPEVTCVVVDVSHEDPEVQFNWYVDGVEVHNAKTKPREEQFNSTFRVVSVLTVVHQDWLNGKEYKCKVSNKGLPAPIEKTISKTKGQPREPQVYTLPPSREEMTKNQVSLTCLVDGFYPSDIAVEWESNGQPENNYDTTPPMLDSDGSFFLYSDLTVDKSRWQQGNVFSCSVMHEALHNHYTQKSLSLSPGK
light 2: QSVLTQPPSVSAAPGQKVTISCSGSSSNIGNNYVSWYQQLPGTAPKLLIYDNNKRPSGIPDRFSGSKSGTSTTLGITGLQTGDEADYYCGTWDSRLSAVVFGGGTKLTVLGQPKANPTVTLFPPSSEELQANKATLVCLISDFYPGAVTVAWKADGSPVKAGVETTKPSKQSNNKYAAKSYLSLTPEQWKSHRSYSCQVTHEGSTVEKTVAPTECS
heavy 2: QVQLVESGGGVVQPGRSLRLSCAASGFTFSSFGMHWVRQAPGKGLEWVAVISFDGSIKYSVDSVKGRFTISRDNSKNTLFLQMNSLRAEDTAVYYCARDRLNYYDSSGYYHYKYYGMAVWGQGTTVTVSSASTKGPSVFPLAPCSRSTSESTAALGCLVKDYFPEPVTVSWNSGALTSGVHTFPAVLQSSGLYSLESVVTVPSSNFGTQTYTCNVDHKPSNTKVDKTVERKCCVECPPCPAPPVAGPSVFLFPPKPKDTLMISRTPEVTCVVVDVSHEDPEVQFNWYVDGVEVHNAKTKPREEQFNSTFRVVSVLTVVHQDWLNGKEYKCKVSNKGLPAPIEKTISKTKGQPREPQVYTLPPSRKKMTKNQVSLTCLVKGFYPSDIAVEWESNGQPENNYKTTPPMLKSDGSFFLYSKLTVDKSRWQQGNVFSCSVMHEALHNHYTQKSLSLSPGK
As for B6, in the test with human CGRP receptor, the “% inhibition of human CGRPR” value is 67%. Also, the “% inhibition of human PAC1” value with human PAC1 receptor is 86%.
